Experiment [1] addresses T1, human PTHrP (1-34) (human).
T1 construct: Synthetic peptide (Peninsula; Peptide Research Institute), coated on ELISA plates at 1 µg/ml or used in solid phase RIA; also called human parathyroid hormone related protein (1-34)
The experiment is described as follows: ELISA on plate-coated human PTHrP (1-34) (1 µg/ml); bound antibody detected with alkaline phosphatase-conjugated goat anti-human IgG; O.D. 405/620. On the technique in general: ELISA stands for enzyme-linked immunosorbent assay.
Protocol: An ELISA plate for the determination of antigen binding ability was prepared as follows. Each of the wells of a 96-well plate for ELISA was coated with 100 μl of a solution comprising human PTHrP (1-34) (Peptide Research Institute) prepared in a coating buffer of a concentration of 1 μg/ml and then blocked with 200 μl of a dilution buffer. […] After incubating at room temperature and washing with PBS-Tween20, each well was added with 100 μl of a solution of alkaline phosphatase-conjugated goat anti-human IgG antibodies (TAGO). After incubating at room temperature and washing with PBS-Tween20, each well was added with 1 mg/ml of a substrate solution (“Sigma104”, p-nitrophenylphosphoric acid, SIGMA). The solution was measured for absorbance at −405 nm using Microplate Reader (Bio Rad).

In another experiment the target is PTHrP (1-34+Cys) (human, C-terminal Cys coupled to sensor tip CM5 through PDEA (thiol coupling)). The experiment is described as follows: BIACORE (SPR), PTHrP (1-34+C) immobilised on CM5 through the C-terminal Cys, antibody as analyte. On the technique in general: Surface plasmon resonance follows binding to a sensor surface in real time, without labels.
For experiment [2], the target named is T1, human PTHrP (1-34). Kind of experiment: solid phase RIA of hybridoma supernatants.
For experiment [3], the target named is T1, human PTHrP (1-34). The experiment is described as follows: ELISA on plate-coated human PTHrP (1-34) (1 µg/ml); bound antibody detected with alkaline phosphatase-conjugated goat anti-human IgG; O.D. 405/620. This is another data set of the same source.
Protocol: (§1) An ELISA plate for determining antigen binding ability was prepared as follows. Each of the wells of a 96-well plate for ELISA (Maxisorp, NUNC) was coated with 100 μl of a coating buffer supplemented with 1 μg/ml of human PTHrP (1-34) and then blocked with 200 μl of a dilution buffer. Thereafter, into each of the wells, was added a culture supernatant of the COS-7 cells in which the hybrid antibody or humanized antibody was expressed or a solution of the purified hybrid antibody or the purified humanized antibody in stepwise dilution. After incubating at room temperature and washing with PBS-Tween20, 100 μl of alkaline phosphatase-conjugated goat anti-human IgG antibody (TAGO) was added to each of the wells. […] The solution was measured for absorbance at 405 nm using Microplate Reader (Bio Rad).
The target of experiment [4] is T1, human PTHrP (1-34). Described as above. The source holds these as a separate data set.
Protocol: as §1
For experiment [5], the target named is T1, human PTHrP (1-34). Described as above. This is another data set of the same source.
Protocol: as §1

Protocol for PTHrP (1-34+Cys): In this experiment, kinetic analysis of the antigen-antibody interaction using BIACORE was conducted. PTHrP(1-34+Cys) was used as an antigen and adsorbed onto the sensor tip specifically for C-terminals. Purified antibodies of various concentrations were used as an analyte. From the sensorgram obtained, kinetics parameters (binding rate constant “kass” and dissociation rate constant “kdiss”) were calculated.
As a running buffer, HBS (10 mM HEPES, pH 7.4; 0.15 M NaCl; 3.4 mM EDTA; 0.005% Surfactant P20) at a flow rate of 5 μl/min. was employed. The carboxyl groups of carboxymethyldextran on the sensor tip CM5 were activated by an injection of 100 μl of 0.05M N-hydroxysuccinimide (NHS)/0.2M N-ethyl-N′-(3-dimethylaminopropyl)carbodiimide hydrochloride (EDC) and an injection of 100 μl of 80 mM 2-(2-pyridinyldithio)ethanamine (PDEA)/0.1M borate buffer (pH 8.5), and an additional injection of 10 μl of 5 μg/ml PTHrP (1-34+C)/10 mM sodium acetate buffer (pH 5.0) to adsorbe onto the C-terminals of PTHrP (1-34+C) specifically for Cys residues. Subsequently, an injection of 100 μl of 50 mM (L)-cystein/1M NaCl/0.1M sodium formate buffer (pH 4.3) was conducted to block excessively activated groups. Subsequently, an injection of 10 μl of 0.1M glycine-HCl buffer (pH 2.5) and 10 μl of 10 mM HCl was conducted to wash the substances having non-covalent bonding.
The date file of interest was read and a comparison of the reaction patterns was conducted by overlaying the reaction regions of interest (FIGS. 20-24). […] Further, kinetic analysis of the interaction was conducted using an analysis software specifically designed for BIACORE “BIAevaluation 2.1” (Pharmacia) which is capable of calculating the kinetics parameters (binding rate constant “kass” and dissociation rate constant “kdiss”) by curve cutting (Tables 4 and 5).

B1: chimeric #23-57-137-1 antibody with human κ L chain C region (antibody, V domains shown)
VH: EVQLVESGGDLVKPGGSLKLSCAASGFTFSSYGMSWIRQTPDKRLEWVATISSGGSYTYYPDSVKGRFTISRDNAKNTLYLQMSSLKSEDTAMFYCARQTTMTYFAYWGQGTLVTVSA
VL: QLVLTQSSSASFSLGASAKLTCTLSSQHSTYTIEWYQQQPLKPPKYVMDLKQDGSHSTGDGIPDRFSGSSSGADRYLSISNIQPEDEAMYICGVGDTIKEQFVYVFGGGTKVTVLG
notes: Mouse V regions on a human Cγ1 H chain C region and a human Cκ L chain C region (from HEF-PM1k-gk); also called chimeric antibody (κ); MBC1HcDNA + MBC1L(κ)/neo
Turning to B1, the binding result in the experiment with human PTHrP (1-34) [1] is reported as “binds”.

B2: mouse monoclonal antibody #23-57-137-1 (antibody, V domains shown)
VH: EVQLVESGGDLVKPGGSLKLSCAASGFTFSSYGMSWIRQTPDKRLEWVATISSGGSYTYYPDSVKGRFTISRDNAKNTLYLQMSSLKSEDTAMFYCARQTTMTYFAYWGQGTLVTVSA
VL: QLVLTQSSSASFSLGASAKLTCTLSSQHSTYTIEWYQQQPLKPPKYVMDLKQDGSHSTGDGIPDRFSGSSSGADRYLSISNIQPEDEAMYICGVGDTIKEQFVYVFGGGTKVTVLG
notes: Whole mouse antibody with a mouse λ L chain; The H chain cDNA was amplified with the MHC-G1 primer; also called MBC
For B2, in the experiment with PTHrP (1-34+Cys), the equilibrium dissociation constant (Kd) (in general, the equilibrium constant for the complex coming apart) came out at 0.102 nM; the off-rate constant (koff) (usually the rate constant with which the complex falls apart) turned out to be 7.38e-05 s⁻¹; the kon (commonly the second-order rate constant of association) was found to be 723000 M⁻¹ s⁻¹. Moreover, in the experiment with human PTHrP (1-34) [2], the binding result is “binds”.

B3: antibody comprising the humanized H chain version "a" and the chimeric L chain (antibody, V domains shown)
VH: QVQLVESGGGVVQPGRSLRLSCAASGFTFSSYGMSWVRQAPGKGLEWVATISSGGSYTYYPDSVKGRFTISRDNSKNTLYLQMNSLRAEDTAVYYCARQTTMTYFAYWGQGTLVTVSS
VL: QLVLTQSSSASFSLGASAKLTCTLSSQHSTYTIEWYQQQPLKPPKYVMDLKQDGSHSTGDGIPDRFSGSSSGADRYLSISNIQPEDEAMYICGVGDTIKEQFVYVFGGGTKVTVLG
notes: Human Cγ1 H chain C region
B3: in the experiment with human PTHrP (1-34) [3], the binding result is given as “binds”.

B4: humanized #23-57-137-1 antibody, H chain version a, L chain version j (antibody, V domains shown)
VH: QVQLVESGGGVVQPGRSLRLSCAASGFTFSSYGMSWVRQAPGKGLEWVATISSGGSYTYYPDSVKGRFTISRDNSKNTLYLQMNSLRAEDTAVYYCARQTTMTYFAYWGQGTLVTVSS
VL: QLVLTQSPSASASLGASVKLTCTLSSQHSTYTIEWYQQQPEKGPKYLMDLKQDGSHSTGDGIPDRFSGSSSGAERYLTISSLQSEDEADYYCGVGDTIKEQFVYVFGGGTKLTVLG
notes: Human Cγ1 and human Cλ C regions; Expressed in COS-7
As for B4, in the experiment with human PTHrP (1-34) [4], the binding result is given as “binds”.

B5: mouse FR1,2/human FR3,4 hybrid antibody (L chain m/hMBC1Ldλ, humanized H chain version a) (antibody, V domains shown)
VH: QVQLVESGGGVVQPGRSLRLSCAASGFTFSSYGMSWVRQAPGKGLEWVATISSGGSYTYYPDSVKGRFTISRDNSKNTLYLQMNSLRAEDTAVYYCARQTTMTYFAYWGQGTLVTVSS
VL: QLVLTQSSSASFSLGASAKLTCTLSSQHSTYTIEWYQQQPLKPPKYVMDLKQDGSHSTGDGIPDRFSGSSSGAERYLTISSLQSEDEADYICGVGDTIKEQFVYVFGGGTKLTVLG
notes: as for B4
With B5, in the experiment with human PTHrP (1-34) [5], the binding result is recorded as “binds”.

B6: hH / hLf (antibody, V domains shown)
VH: QVQLVESGGGVVQPGRSLRLSCAASGFTFSSYGMSWVRQAPGKGLEWVATISSGGSYTYYPDSVKGRFTISRDNSKNTLYLQMNSLRAEDTAVYYCARQTTMTYFAYWGQGTLVTVSS
VL: QLVLTQSPSASASLGASVKLTCTLSSQHSTYTIEWHQQQPEKGPRYLMKLKQDGSHSTGDGIPDRFSGSSSGAERYLTISSLQPEDEADYICGVGDTIKEQFVYVFGGGTKLTVL
notes: copies: 2 + 2
Turning to B6, the binding result in the experiment with human PTHrP (1-34) [4] is given as “no binding (tested: about 380 ng/ml)”.

Source of the values: patent US20080095772A1 (Chugai, published 2008).
